Reference: the nanobody polyreactivity screen of Harvey et al. (2022)

Assay: yeast display, Sf9 membrane polyspecificity reagent, FACS + sequencing; frameworks hold sequencing errors
How it was run: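 Nanobodies came from a synthetic yeast display library in Saccharomyces cerevisiae BJ5465, induced with galactose for 36–48 hours and stained for 1 hour at 4 °C with 10% biotinylated, detergent-solubilized Sf9 membrane reagent. Cells were enriched on streptavidin microbeads and then FACS-sorted, with low and high (top ~1%) gates set on anti-HA fluorescence for expression and streptavidin fluorescence for reagent binding. Each polyreactivity label reflects the gate a clone came from. Genes were amplified by colony PCR, sequenced by MiSeq 2 × 250 and filtered by CDR length.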

| Sequence | polyreactivity (PSR sort gate) |
| --- | --- |
| QVQHVESGGGLVKAGGSLRLSCAATGSIFSPYAMGWYILAPGKERELVAAISRSGRTHYADSVKGRFTISRDNAKHTVYLQMNSLKADDTAVYFCAAGVVYGYYYWGQGTQVTVSS | high polyreactivity |
| QVQLVESGGGLVQAGGSLRLSCAASGFIFTDYAMGWYRQAPGKERELVATISWSGSSTYYADSVKGRFTISRDNEKNTVYLQMNILKPEDTGVYYCAAEFWYTYPYLVDYWRQGTQVTVSS | low polyreactivity |
| QVQLVESVGGLVQAGGSLRLSCAASGSIFVNNAMGWYRQAPGKERELVAAISRSGGSTYYADSVKGRFTISRDNAKNTVYLQMNSLKPEDTAVYYCATVHRSSTPPEFNYWGQGTQVTVSS | high polyreactivity |
| QVQLVESGGGIVQAGGSLRLTCAASGITFYKYDMGWYRQAPGKDRELVAAISFRGGNTNYADSVKGRFTISRDNAKNTVYLQMNILKPEDTAVYYCAAYSYTWFYEYGYWGQGTQVTVSS | high polyreactivity |
| QVQLVESGGGLVQAGGSLRLSCAASGSIFYFNAMGWYRQAPGKERELVAAISTSGGSTYADSVKGRFTISRDNAKNTVYLQMNSLKPEDTAVYYCAADFLTSRSRTFDYWGQGTQVTVSS | low polyreactivity |
| KVQLVESGGALVQAGGSLRLSCAPSGSIFWNNAMGWYRQAPGKERELVAGISSAGSTNYADSVKGRFTISRDNAKNTVYLQLKSQKPEDTAVYYCAASYFSEYVWLRSYVRYYYWVQGTQVTVSS | low polyreactivity |
| QVQLVESGGGLVQAGGSLRLSCAPSGNIFAINALGWYRQAPGKESELVATITGGGGSTSYADSVKGRFTISRDNAKNTVYLQMNSLKPEDTAVYSCAADTVYYYGEWYDYWNYVWFDYWGQGTQVTVSS | low polyreactivity |
| QVQLVESGGGLVQAGGSLRLSCAASGSTFSPYAMGWYRQAPGKERELVAGITSSGGDTYYADSVKGRFTISRDNAKNTVYLQMNSLKPEDTAVYYCAAGLQGYPRKFNYWGQGTQVTVSS | low polyreactivity |
| QVQLVESGGGLVQAGGSLRLSCAASGSIFVYYAMGWYRQAPGKERELVAAISQRGGRTYYADSVKGRFTISRDNAKNTVYLQMNSLKPEDTAVYYCAARAWTRSVPYGFYYWGQGTQVTVSS | high polyreactivity |
| QVHLVETGGGLVQAGGSLRLSCAASGSIFFVYAMGCYRPAPGKERELVAAISNDGSTNYADSVKGRFTISRDNAKNTVYLQMNCLIPEDTAVYYCAKDTRTKYDYWGQGTQVTVSS | low polyreactivity |
| QVQLVESGGGLVQAGASLRLSCAASGITFLDYAMGWYRQAPGTEREMVAVITWNDGSTYYADSVKGRFTISRDNAKNTVYLQMNSLKPEDTAVYYCAAEYADSWSAFDWNYYYWGQGTQVTVSS | high polyreactivity |
| QVQLVESGGGLVQAGGSLRLSCYASGRTFAGYVMGWYRQAHGKERELVAAINASGGSTYYADSVKGRFTISRDNAKNTVYLQMNSLKPEDTAVYYCAAARLGSDITRRYYYWGQGTQVTVSS | high polyreactivity |
| QVQLVESGGGLVQAGGSLRLSCAASGFIFGNYAMGWYRPAPGKERELVATITRRGGRTYYADSVKGRFTISRDNAKNTVYLQMNSLKPEDTAVYYCNAGAYYLLSGQDDMDYWGQGTQVTVSS | high polyreactivity |
| QVQLVESGGGLVQAGGSLRLSCAASGSIFVTNAMGWYRQAPGKERELVAAITRGGNTNYADSVKGRFTISRDNAKNTVYLQMNSLKPEDTAVYYCAADTSYYYVYGYFPGYYYWGLGTQVTVSS | low polyreactivity |
| QVQLVESGGGLVQAGGSLRLSCAASGRIFKYNAMGWYIQAPGKERELVAVITSGGSTYYADSVKGRFTISRDNEKNTVYLQMNSLKPDDTEVYYCAKKYYKVHKFDYWGQGTQVTVSS | low polyreactivity |
| QVQLVESGGGLVQAGGSLRLSCAASGRTLRRYAMGWYRQAPGKERELVADISWRGTSTNYADSVKGRFTISRDNAKNTVYLQMNSLKPEDTAVYYCAAKQTYTRLHYLGPSVWDNYDYWGQGTQVTVSS | high polyreactivity |
| QVQLVESGGGLVQEGASLRLSCAASGSIVGYYAMGWYRQAHGKERELVAAITRYGGRTYYADSVKGRFTISRDNGKNTVYLQMNSLKPEDTAVYYCNAANSRYAYYYWGQGTQVTVSS | high polyreactivity |
| QVQLVESGGGLVQAGGSLRLSCAASGRTFQWNGMGWYRQAPGKERELVDTIRRGGSTNYADSVKGRFTISRDNAKNTVDLQMNSLKPEDTAVYYCAADRRYPGGWGFEYNYWGQGTQVTVSS | low polyreactivity |
| QVQLVESGGGLVQAGGSLRLSCAASGSIFAPYAMGWYRQAPGKERELVAAIRWSGGRTYYADSVKGRFTISRDNAKNTVYLQMNSLKPEDTAVYYCNAVIHRLGKTYGTNRVDYWGQGTQVTVSS | high polyreactivity |
| QVQLVESGGGLVQAGGSLRLSCDASGSTFRGNAMGWYRQAPGKEREFVASISRRGGRTNYADSVKGRFTISRDNAKNTVYLQMNSVKPEDTAVYYCAATTVPLGDYWGLGTQVTVSS | high polyreactivity |
| QVQLVESGGGLVQAGGSLRLSCAASGSIFRGNALGWYRQAPGKERELFAAISKSGGSTYYADSVKGRFTISRDNAKNTVDLEMNSLKPEDTAVYYCAARTTYLYGMYYWGQGTQVTVSS | low polyreactivity |
| QVQLVESGGGLVQAGGSLRLSCAASGSTFFSNAMGWYRQAPGKERELVAAISGSGDSTYYADSVKGRFTISRDNAKNTVYLQMNSLKPEDTAVYYCAARLSTAHYYLGDYWGQGTEVTVSS | low polyreactivity |

| Sequence | polyreactivity (PSR sort gate) |
| --- | --- |
| QVQLVESGGGLVPAGGSLRLSCAASGSIFGFYAMGWYRQSPGKERELVAGISYGDSSTYYADSVKGSFTISRDNAKNTVYLQMNSLKPEDTAVYYCAAGHRQKYNWGRYDYWGQGTQVTVSS | low polyreactivity |
| QVQLVESGGGLVQAGGSLRLSCAASGSTFFYYAMGWYRQAPGKDRELVAAISGGGGDTTYADSVKGRFTISRDNAKNTVYLQMNSLKPEDTAVYYCAAVPGSFGSGIFDYWGQGTQATVSS | low polyreactivity |
| QVQLVESGGGLVQAGGSLRLSCAASGNIFGKNVMGWYRQAPGKEREFVAAITSRGGRTNYADSVKGRFTISRDNAKNTVYLQMNSLKPEDTAVYYCAKDKNYPSGYGYWGQGTQVTVSS | high polyreactivity |
| QVQLVESGGGLVQARGSLRLSCAASGFIIRWNTKGWYRQAPGKVRELVAAISSRGGSTYYADSVKGRFKISRDNAKNTVYLQMNSRKPEDTAVYYCNAVRGDEYWGLGTQVTVSS | high polyreactivity |
| HVQLQESGGGLVQACGSQRLSCAASGSISEGQDMGRYRLAPGKEREFVAGIAPGATTYYADSVKGRFTISRDNAKITVYLQMNSLIPEDNAVYYCAARSVTETDHDYWGQGTQVTVSS | low polyreactivity |
| QVQLVESGGGLVQAGGSLRLSCAASGLTFWKYTMGWYRQAPGKERELVAAISISGTNTYYADSVKGRFTISRDNAKNTVYLQMNSLKPEDTAVYYCAAVRGYPPTNYYYWGQGTQVSVSS | high polyreactivity |
| QFQLVESGGGLVQAGGSLRLSCAASGRIFVPNAMGWYRQAPGKEREFVAAINSGGSTYYADSVKGRFTISRDNAKNTVYLQMNSMKPEDTAVYYCAAVDFSSGYYGRLARYYYWGQGTQVTVSS | high polyreactivity |
| QVQLVESGGGLVQAGGSLRLSCAASGRIFYRYAMGGYRQAPGKERELVASITTSGDSTYYADSVKGRFTISRDNAKNTVYLQMNSLKPEDTGVYYCAASSYRGRRYDYWGQGTQVTVSS | high polyreactivity |
| QVQLVESGGGLVQAGGSLRLSCAASGIIFRTYAMGCYRQAPVKERELVAAITGSGGITYYADSVKGRFTISRDNAKNTVYLQMNSLKPEDTAVYYCAARGTRDGVQRYGYWGQGSQVTVSS | high polyreactivity |
| QVQLVESGGGLVQAGGSLRLSCAASGRIFVTYAMGWYRQAPGKERELVAAITSRGGRTYYADSVKGRFTISRDNAKKTVYLQMNSLKPEDTAVYYCAAYPGPGARYYYWGQGTQVTVSS | high polyreactivity |
| QVQLVESGGGLFQAGGSLRLSSAASGTRYYAMGWYRPAPGKERELVAGIRWRDGGTYYADSVKGRFTISRDNAKNTFYLQLNSLKPEDTAVYYCNASVTSWYKRAGYYWGQGSQVTVSS | high polyreactivity |
| QVQLVESGGGLVQAGGSLRLSCAASGRTFFPYAMGWYRQAPGKEREFVAAITKTDDSTYYADSVKGRFTISRDNAKNTVYLQMNSLKPEDTAVYYCAADTSRSVSVFIVWYWLGYWGQGTQVTVSS | low polyreactivity |
| QVQLVESGGGLVQAGGSLRLSCAGSGSTFGWYVMGWYRQAPGKERELVASITGSGGSTYYADSVKGRFTISRDNAKNTAYLQMNSLKPEDTAVYYCAADTGWYDDWTHDYWGQGTQVTVSS | low polyreactivity |
| QVQLVESGGGLVQAGGSLRLSCAASGFIIPGYAMGWYRQAPGKERELVAAISSGTSTYYADSVKGRFTISRDNAKNTVYLQMNSLKPEATAVYYCAADTWYRFGYWGQGTQVTVSS | low polyreactivity |
| QVQLVESGGGLVQAGGSLRLSCAASGRTFSSYAMGWYRQAPGKERELVAAIRVSGGITYYADSVKGRFTISRDNAKNTVYLQMNSLKPEDTAVYYCNAGVDFIGGSYLKYDYWGQGTKVTVSS | low polyreactivity |
| QVQLVESGGGLVQAGGSLRLSCAASGITFNPYVMGWYRQAPGTERELVAVITSGGSTNYADSVKGRFTISRDNAKNTVYLQMNSLKPEDTAVYYCNVDRRPYYVWRVTYDYWGQGTQVTVSS | low polyreactivity |
| QVQLVESGGGLVQAGGSLRLSCAASGSIFNHYAMGWYRQAPGKERELVATITDGGSTYYADSVKGRFTISRDNAKNTVYLQMNSLKPEDTAVYYCATDRRRFWVIYYYWGQGTQVTVSS | low polyreactivity |
| QVQLVESGGGLVQAGGSLRLSCAASGSTLYIYVMGWYRQAPGKERELVAAIDSGDDTDYADSVKGRFTISRDNAKNTVYLQMNSLKPEVTAVYYCAAQKWYYPYYWGKGTQVTVSS | high polyreactivity |
| QVQLVESGGGLVQAGGSLRLSCAASGFTFEGNAMGWYRQAPGKERELVAAISSNGGRTYYADSVKGRFTISRDNAKNTVYLQMNSLKPEDTAVYYCNALRAYSGPDYDYYHGRRYDYWGQGTQVTVSS | low polyreactivity |
| QVQLVESGGGLVQAGGSLRLSCAASGRTFVKNAMGWYRQAPGKERELVAAISSSGGSTYYADSVKGRFTISRDNAKNTVYLQMNSLKPEDTAVYYCNRYSRLYLTDDDYWGQGTQVTVSS | high polyreactivity |
| QVQLVESGGGLVQAGRSLRLSCAASGRIFRFKTMGWYRQSPGKERELVAAITYSGGGTYYADSVKGRFTISRDNAKNTVYLQMNSLKPEDTAVYYCAATLYLRTIDDYWGQGTQVTVSS | high polyreactivity |
